Key:
[1] = target: the molecule itself; assay: negative-stain EM; P pilus rods assembled in vitro from 50 µM PapA-PapDhis complex, 20 mM Tris-HCl pH 8.0, 50 mM NaCl, 37 °C, 7 days
[2] = target: the molecule itself; assay: cryo-EM structure; in vitro-assembled type 1 pilus rods, helical reconstruction, 2.69 Å; sample diluted to 100 µM in ddH2O
FimChis = target: T1, FimChis (Escherichia coli, UniProt P31697 37-241); assay: SEC; complex formed by rapid dilution of unfolded, disulfide-intact FimA into FimC (15 min, 23 °C), then Sephadex G25, Source 30S cation exchange and Superdex 75 in 20 mM Tris-HCl pH 8.0, 50 mM NaCl; conditions: both partners purified
T1 construct: FimC, periplasmic chaperone of type 1 pili, Escherichia coli; source: E. coli BL21(DE3) with pFimChis-cyt, purified (SP-Sepharose, Superdex 75 SEC)
T1 sequence (looked up): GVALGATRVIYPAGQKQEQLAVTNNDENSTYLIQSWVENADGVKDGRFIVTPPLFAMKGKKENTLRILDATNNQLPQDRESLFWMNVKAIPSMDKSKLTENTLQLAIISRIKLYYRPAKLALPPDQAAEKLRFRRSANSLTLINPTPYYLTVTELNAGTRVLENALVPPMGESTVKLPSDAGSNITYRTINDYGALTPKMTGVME

[3] = target: T2, FimC, periplasmic chaperone of type 1 pili (Escherichia coli, UniProt P31697 37-241); assay: as above; conditions: both partners purified
T2 construct: FimC, periplasmic chaperone of type 1 pili, Escherichia coli; source: E. coli BL21(DE3) with pFimC-cyt, purified (SP-Sepharose, Superdex 75 SEC)
T2 sequence: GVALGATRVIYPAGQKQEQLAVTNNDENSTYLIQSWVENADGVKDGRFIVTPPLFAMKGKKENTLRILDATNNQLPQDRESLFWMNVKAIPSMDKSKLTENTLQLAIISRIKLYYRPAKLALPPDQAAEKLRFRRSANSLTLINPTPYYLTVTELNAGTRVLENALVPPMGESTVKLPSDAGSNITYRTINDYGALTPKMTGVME

| Binder | binding result [1] | binding result [2] | binding result (FimChis) | binding result [3] |
| --- | --- | --- | --- | --- |
| PapA, main structural subunit of the P pilus rod (co-expressed with PapDhis) (natural protein, PapA, main structural subunit of the P pilus rod, Escherichia coli; also called in vitro-assembled P pili; source: E. coli HM125 with PapDA (pTRC99a), periplasmic extract; purified as a complex with PapDhis (HisTrap, Source 30S, SEC)) APTIPQGQGKVTFNGTVVDAPCSISQKSADQSIDFGQLSKSFLEAGGVSKPMDLDIELVNCDITAFKGGNGAKKGTVKLAFTGPIVNGHSDELDTNGGTGTAIVVQGAGKNVVFDGSEGDANTLKDGENVLHYTAVVKKSSAVGAAVTEGAFSAVANFNLTYQ | binds | – | – | – |
| FimA, main structural subunit of the type 1 pilus rod (recombinant, assembled in vitro) (natural protein, FimA, main structural subunit of the type 1 pilus rod of Escherichia coli; printed residue numbers run to Q159; The same FimA was used for rods assembled from FimA monomers, from FimA-FimC complexes and with FimD (FimD-cat); also called FimA monomers; self-complemented FimA) AATTVNGGTVHFKGEVVNAACAVDAGSVDQTVQLGQVRTASLAQEGATSSAVGFNIQLNDCDTNVASKAAVAFLGTAIDAGHTNVLALQSSAAGSATNVGVQILDRTGAALTLDGATFSSETTLNNGTNTIPFQARYFATGAATPGAANADATFKVQYQ | – | binds | binds | binds |
